In patent US20250034253A1 (AKESO BIOPHARMA, published 2025):

Biological target: T1, human TIGIT-mFc (human; mouse, UniProt Q495A1 22-141, limits assumed)
T1 construct: also called antigen TIGIT-mFc; TIGIT-mnFc
Test: BLI (Fortebio), TIGIT-mFc on AMC sensor, 37 C, 1:1 fit
Protocol: The sample dilution buffer was PBS (0.02% Tween-20, 0.1% BSA, pH 7.4). TIGIT-mFc was immobilized on an AMC sensor at a concentration of […] for 50 s, and the sensor was equilibrated in the buffer for 60 s. The TIGIT-mFc immobilized on the sensor was allowed to bind to the antibody at concentrations of 0.06-5 nM (three-fold dilutions) for 120 s, and the protein was dissociated in the buffer for 300 s. The sensor was regenerated in 10 mM glycine solution (pH=1.7). The detection temperature was 37° C., the detection frequency was 0.3 Hz, and the sample plate shaking rate was 1000 rpm. The data were analyzed by 1:1 model fitting to obtain affinity constants.

T1 sequence (Q495A1 other isoform, or with tags, fused parts or gaps limits assumed): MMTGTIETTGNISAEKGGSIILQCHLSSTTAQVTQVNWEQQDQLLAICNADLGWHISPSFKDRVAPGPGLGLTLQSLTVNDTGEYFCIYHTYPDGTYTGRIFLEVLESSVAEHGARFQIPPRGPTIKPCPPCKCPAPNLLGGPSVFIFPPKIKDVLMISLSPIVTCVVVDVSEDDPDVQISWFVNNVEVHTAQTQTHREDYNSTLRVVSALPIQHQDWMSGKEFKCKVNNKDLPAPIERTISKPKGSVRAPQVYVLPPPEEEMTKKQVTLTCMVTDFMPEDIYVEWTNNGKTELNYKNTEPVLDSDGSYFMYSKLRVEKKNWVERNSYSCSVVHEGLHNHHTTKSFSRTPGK

B1: RG6058 (antibody, V domains shown)
VH: EVQLQQSGPGLVKPSQTLSLTCAISGDSVSSNSAAWNWIRQSPSRGLEWLGKTYYRFKWYSDYAVSVKGRITINPDTSKNQFSLQLNSVTPEDTAVFYCTRESTTYDLLAGPFDYWGQGTLVTVSS
VL: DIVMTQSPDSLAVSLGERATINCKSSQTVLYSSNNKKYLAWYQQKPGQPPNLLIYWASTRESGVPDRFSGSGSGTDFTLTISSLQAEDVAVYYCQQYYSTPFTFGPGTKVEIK
  Maximum signal height of analyte (nm): 0.16 nm
  S E(kdis): 3.46e-05 s⁻¹
